Laboratory results as given in patent publication US20220306762A1 (CRYSTAL BIOSCIENCE, published 2022).
Where a chain is given by its changes, count along the chain named.

Legend:
[1] = target: T1, His-tagged human CD38 (ACRO Biosystems cat #CD8-H5224) (human, UniProt P28907 43-300); test: ELISA, coated His-CD38
T1 construct: bought recombinant protein with His tag

[2] = target: T2, His-tagged cynomolgus monkey CD38 (ACRO Biosystems cat #CD8-05223) (cynomolgus monkey, UniProt Q5VAN0 43-301); test: ELISA, coated His-CD38
T2 construct: bought recombinant protein with His tag

[3] = target: T3, His-tagged mouse CD38 (ACRO Biosystems #CD8-M5223) (mouse, UniProt P56528 45-304); test: ELISA, coated His-CD38
T3 construct: bought recombinant protein with His tag; also called Murine
T3 sequence (looked up): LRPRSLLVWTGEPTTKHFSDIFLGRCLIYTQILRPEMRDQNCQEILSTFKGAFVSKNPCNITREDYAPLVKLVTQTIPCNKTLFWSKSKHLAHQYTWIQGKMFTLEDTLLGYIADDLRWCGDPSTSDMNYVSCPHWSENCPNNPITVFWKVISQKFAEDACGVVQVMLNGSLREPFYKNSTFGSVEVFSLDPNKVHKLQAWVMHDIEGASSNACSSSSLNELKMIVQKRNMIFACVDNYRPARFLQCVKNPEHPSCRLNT

[4] = target: T1, His-tagged human CD38 (ACRO Biosystems …); test: SPR, captured scFv-Fc, His-CD38 analyte;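 further: SPR on a Carterra LSA, scFv-Fc captured by anti-human Fc on HC30M chip, His-tagged CD38 (human, mouse, cynomolgus) flowed as analyte in eight 1:2 steps from 400 nM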
[5] = target: T2, His-tagged cynomolgus monkey CD38 (ACRO …); test: SPR, captured scFv-Fc, His-CD38 analyte;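 further: SPR on a Carterra LSA, scFv-Fc captured by anti-human Fc on HC30M chip, His-tagged CD38 (human, mouse, cynomolgus) flowed as analyte in eight 1:2 steps from 400 nM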
[6] = target: T4, human CD38 on transiently transfected Expi293 cells (Origene #SC321273) (human, UniProt P28907 1-300); test: flow cytometry, transfected Expi293 cells;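 further: antibody binding to Expi293 cells transiently expressing human or murine CD38, antibodies applied at 10 ug/ml for 60 min on ice, read by flow cytometry as percent gated cells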
T4 construct: whole, on cells; also called Human (FACs)

[7] = target: T5, murine CD38 on transiently transfected Expi293 cells (Origene MC208001) (murine, UniProt P56528 1-304); test: flow cytometry, transfected Expi293 cells;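 further: antibody binding to Expi293 cells transiently expressing human or murine CD38, antibodies applied at 10 ug/ml for 60 min on ice, read by flow cytometry as percent gated cells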
T5 construct: whole, on cells; also called Murine (FACs)
T5 sequence (looked up): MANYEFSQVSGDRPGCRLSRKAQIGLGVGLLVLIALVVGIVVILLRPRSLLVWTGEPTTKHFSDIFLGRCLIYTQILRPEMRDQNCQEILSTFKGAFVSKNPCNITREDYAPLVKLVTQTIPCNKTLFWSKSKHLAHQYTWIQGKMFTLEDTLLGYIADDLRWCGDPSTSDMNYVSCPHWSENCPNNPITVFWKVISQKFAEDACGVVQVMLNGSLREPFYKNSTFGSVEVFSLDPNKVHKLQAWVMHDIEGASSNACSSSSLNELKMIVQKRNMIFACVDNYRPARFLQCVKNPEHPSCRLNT

B1: 40769p1.1.B12 (scFv, V domains shown)
VH: EVQLLESGGGLIQPGGSLRLSCTASGFDFSSYGMHWVRQAPGKGLEWVGIISDSGGTTYYADSVKGRFTISRDNSKNTMYLQMNSLRAEDTALYYCASYIMDVWGQGITVTVSS
VL: QSVLTQPPSASGTPGQRVTISCSGSSSNVGGNSVYWYQQLPGTAPKLLFYGNHRRPSGVPDRFSGSKSGTSASLAISGLQSEDEADYYCAVWDDSLNAWVFGGGTKLTVL
notes: tested as scFv-Fc supernatant
ELISA 1 ug/ml [1]: 1.56
ELISA 1 ug/ml [2]: 1.91
ELISA 1 ug/ml [3]: 0.472
Kd [4]: 32.4 nM
Kd [5]: 135 nM
FACs 10 ug/ml (percent gated) [6]: 71.1%
FACs 10 ug/ml (percent gated) [7]: 31.9%

B2: 40769p1.2.E3 (scFv, V domains shown)
VH: EVQLLESGGDLVQPGGSLRLSCGASGFTFSDHYMSWVRQAPGKGLEWVADISARGSNTWYADSVKGRFTISRDNSENTLYLQMNSLRAEDTAVYYCAKNWNYNYGMDVWGQGTTVTVSS
VL: QSVLTQAPSASGTPGQRVTISCSGSSIQNNYVSWYQQLPGTAPKLLIYRNFERPSGVPDRFSASKSGTSASLAISGLQSEDEADYYCASWDDSLNWVFGGGTKLTVL
notes: tested as scFv-Fc supernatant
ELISA 1 ug/ml [1]: 1.59
ELISA 1 ug/ml [2]: 1.7
Kd [4]: 2.24 nM
Kd [5]: 2.11 nM
FACs 10 ug/ml (percent gated) [6]: 80.5%

B3: 40769p1.2.F9 (scFv, V domains shown)
VH: B2 VH
VL: B2 VL with E80G
notes: tested as scFv-Fc supernatant
ELISA 1 ug/ml [1]: 1.47
ELISA 1 ug/ml [2]: 1.56
Kd [4]: 17.1 nM
FACs 10 ug/ml (percent gated) [6]: 79.4%

B4: 40769p1.2.B4 (scFv, V domains shown)
VH: B2 VH with Q111H
VL: B2 VL
notes: tested as scFv-Fc supernatant
ELISA 1 ug/ml [1]: 1.55
ELISA 1 ug/ml [2]: 1.73
Kd [4]: 2.38 nM
Kd [5]: 2.34 nM
FACs 10 ug/ml (percent gated) [6]: 81%

B5: 40769p1.1.G5 (scFv, V domains shown)
VH: EVQLLESGGGFVQPGGSLRLSCAASGFNFNNAWMNWVRQAPGKGLEWVGIINGDGTNTYYADSVKGRFTISRDNSKNTLYLQMSSLRAEDTAIYYCARDNKLNDYYYAMDVWGQGTTVTV
VL: QSVLTQPSSASGTPGQRVTISCSGGSSNIHANYVYWYQQLPGTAPKLLIYRNSQRPSGVPDRFSGSKSGTSASLAISGLQSEDEADYYCGTWDNILNVWVFGGGTKLTVL
notes: tested as scFv-Fc supernatant
ELISA 1 ug/ml [1]: 1.72
ELISA 1 ug/ml [2]: 2.01
Kd [4]: 3.11 nM
Kd [5]: 11.5 nM
FACs 10 ug/ml (percent gated) [6]: 84.4%

B6: 40769p1.1.B8 (scFv, V domains shown)
VH: EVQLLESGGGLVQPGGSLRLSCAASGFTFEDYAMSWVRQAPGKGLEWVSVISSKGGSTSNADSVKGRFTISRDNSKNTLYLQMNSLRAEDTAVYYCAKGMERQYYSYNAMDVWGQGTTVTVSS
VL: QSVLTQPPSASGTPGQRVTISCSGSNSNIDVDYVYWYQQLPGTAPRLLIYKDDQRPSGVPDRFSGSKSGTSASLAISGLQSEDEADYYCATWDDNLNSWLFGGGTKLTVL
notes: tested as scFv-Fc supernatant
ELISA 1 ug/ml [1]: 1.64
ELISA 1 ug/ml [2]: 1.75
ELISA 1 ug/ml [3]: 0.048
Kd [4]: 0.101 nM
Kd [5]: 1.62 nM
FACs 10 ug/ml (percent gated) [6]: 81.4%
FACs 10 ug/ml (percent gated) [7]: 0.04%

B7: 40769p1.1.H3 (scFv, V domains shown)
VH: EVQLLESGGGLVQPGGSLRLSCAASGFAFNDYLMSWVRQAPGKGLEWVSTISWSGGSTYYADSVKGRFTISRDNSKNTLYLQMNSLRAEDTALYYCARDRYRYNYYYFMDVWGQGTTVTV
VL: QSVLTQPPSASGTPGQRVTISCSGSTSDSPYDRIDWYQQLPGTAPKLLIYKDDQRPSGVPDRFSGSKSGTSASLAISGLQSEDEADYYCATWDAMLSAWVFGGGTKLTVL
ELISA 1 ug/ml [3]: 0.049
FACs 10 ug/ml (percent gated) [6]: 82.5%
FACs 10 ug/ml (percent gated) [7]: 3.84%

B8: 40769p1.1.A2 (scFv, V domains shown)
VH: EVQLLESGGGLVQPGGSLRLSCAASGFLFDDYGMSWVRQAPGKGLEWVSAISYKGGSTYYADSVKGRFTISRDNSKNTLYLQMSSLRAEDTAVYYCAKDHKWNYYGMDVWGQGTTVTVSS
VL: QSVLTQPPSASGTPGQRVTISCSGSTSNIGNDNYVSWYQQLPGTAPRLLIYKDDQRPSGVPDRFSGSKSGTSASLAISGLQSEDEADYYCGTWDDRLNAWVFGGGTKLTVL
notes: tested as scFv-Fc supernatant
ELISA 1 ug/ml [1]: 1.61
ELISA 1 ug/ml [2]: 1.73
ELISA 1 ug/ml [3]: 0.049
Kd [4]: 0.319 nM
Kd [5]: 0.35 nM
FACs 10 ug/ml (percent gated) [6]: 78.5%
FACs 10 ug/ml (percent gated) [7]: 2.65%

B9: 40769p1.1.E2 (scFv, V domains shown)
VH: EVLLLESGGGLVQPGGSLRLSCAASGFTFSDYWMSWVRQAPGKGLEWVSTISISAGIIYYADSVKGRFTISRDNSKNTLYLQMNSLRAEDTAVYYCAKDNWNDYYGMDVWGQGTTVTVSS
VL: QSVLTQPPSASGTPGQRVTMSCSGNNQNIRDNYVYWYQQVPGTAPKLLIYKDDQRPSGVPDRFSGSKSGTSASLAISGLQSEDEADYYCATWDGSLKARVFGGGTKLTVL
notes: tested as scFv-Fc supernatant
ELISA 1 ug/ml [1]: 1.65
ELISA 1 ug/ml [2]: 1.98
Kd [4]: 3.23 nM
Kd [5]: 4.4 nM
FACs 10 ug/ml (percent gated) [6]: 82%

B10: 40769p1.1.G10 (scFv, V domains shown)
VH: B9 VH with L3Q, S35N, I53S, S54G, A55G, G56S, I57M, Y60H, A88P
VL: B9 VL with T19N, M20I, N25S, N26S, Q27S, D31Y, K67E, K97N
notes: tested as scFv-Fc supernatant
ELISA 1 ug/ml [1]: 1.75
ELISA 1 ug/ml [2]: 2.11
Kd [4]: 78.9 nM
Kd [5]: 154 nM
FACs 10 ug/ml (percent gated) [6]: 77.5%

B11: 40769p1.1.H1 (scFv, V domains shown)
VH: B9 VH with L3Q, S35N, I53S, S54G, A55G, G56S, I57M, Y60H, A88P
VL: B9 VL with T19N, M20I, N25S, N26S, Q27S, D31Y, G78E, K97N
notes: tested as scFv-Fc supernatant
ELISA 1 ug/ml [1]: 1.86
ELISA 1 ug/ml [2]: 2.05
ELISA 1 ug/ml [3]: 0.049
Kd [4]: 85.7 nM
Kd [5]: 59.5 nM
FACs 10 ug/ml (percent gated) [6]: 76.2%
FACs 10 ug/ml (percent gated) [7]: 3.13%

B12: 40769p1.1.B10 (scFv, V domains shown)
VH: EVQLLESGGGLVQPGGSLRLSCTASGITFSRFNMFWVRQAPGKGLEFVASIRDDGSWTYYADSVKGRFTISRDNSKNTLYLQMNSLRAEDTAVYYCAKDYNSKDFIYHYVMDVWGQGTTVTVSS
VL: QSVLTQPPSASGTPGQRVTISCSGRNSNIGNNVVNWYQQLPGTAPKLLIYRNQERPSGVPDRFSGSKSGTSASLAISGLQSEDEADYYCSTWDDSLNGWVFGGGTKLTVL
notes: tested as scFv-Fc supernatant
ELISA 1 ug/ml [1]: 1.5
ELISA 1 ug/ml [2]: 2.05
ELISA 1 ug/ml [3]: 0.049
Kd [4]: 8.02 nM
Kd [5]: 96400 nM
FACs 10 ug/ml (percent gated) [6]: 76.4%
FACs 10 ug/ml (percent gated) [7]: 0.38%

B13: 40769p1.1.G12 (scFv, V domains shown)
VH: EVQLLESGGGLVQPGGSLRLSCAASGFTFDDYVMSWVRQAPGKGLEWVSEISESDGSNKYYADSVKGRFIISRDNSKNTLYLQMNSLRAEDTAVYYCARLEPEKYYGMDVWGQGTTVTVSS
VL: B12 VL with R25S, V33L, N35S, N52H, Q53D, E54H, S90A, W99R, V100A
notes: tested as scFv-Fc supernatant
ELISA 1 ug/ml [1]: 1.45
ELISA 1 ug/ml [2]: 1.08
ELISA 1 ug/ml [3]: 0.056
Kd [4]: 1.88 nM
Kd [5]: 11.4 nM
FACs 10 ug/ml (percent gated) [6]: 68.4%
FACs 10 ug/ml (percent gated) [7]: 0.16%

B14: 40596p1.E4 (scFv, V domains shown)
VH: EVQLLESGGGLVQPGGSLRLSCAASGFDFSGSAMSWVRQAPGKGLEYVAGLGWSGSFIYYADSVKGRSTISRDNSKNTLYLQLNSLRAEDTAVYYCARNPGFGEMDVWGQGTTVTVSS
VL: EIVLTQSPGSLSLSPGERATLSCRASQTVGSNLAWYQQKPGQAPRLLIYGASTRATDIPDRFSGSGSGTEFTLTISSLQSEDFAVYYCQQYNSWPPLTFGGGTKVEIK
notes: tested as scFv-Fc supernatant
ELISA 1 ug/ml [1]: 1.93
ELISA 1 ug/ml [2]: 1.77
ELISA 1 ug/ml [3]: 1.72
Kd [4]: 56.9 nM
Kd [5]: 17.8 nM
FACs 10 ug/ml (percent gated) [6]: 64.2%
FACs 10 ug/ml (percent gated) [7]: 34%
